Measurements reported in article PMC4191399.
Positions count from the first letter of the chain named.

Tests used:
[1] = target: T1, RIG-I K788A K788A (Homo sapiens) (UniProt O95786); experiment: fluorescence polarization; conditions: internal 6-carboxyfluorescein in backbone between U12 and C13 (central tetraloop bases); 25 mM MOPS pH 7.4, 150 mM KCl, 2 mM DTT, 2 mM MgCl2, 0.01% Triton X-100, 1 nM RNA, room temperature, 1 h
T1 sequence: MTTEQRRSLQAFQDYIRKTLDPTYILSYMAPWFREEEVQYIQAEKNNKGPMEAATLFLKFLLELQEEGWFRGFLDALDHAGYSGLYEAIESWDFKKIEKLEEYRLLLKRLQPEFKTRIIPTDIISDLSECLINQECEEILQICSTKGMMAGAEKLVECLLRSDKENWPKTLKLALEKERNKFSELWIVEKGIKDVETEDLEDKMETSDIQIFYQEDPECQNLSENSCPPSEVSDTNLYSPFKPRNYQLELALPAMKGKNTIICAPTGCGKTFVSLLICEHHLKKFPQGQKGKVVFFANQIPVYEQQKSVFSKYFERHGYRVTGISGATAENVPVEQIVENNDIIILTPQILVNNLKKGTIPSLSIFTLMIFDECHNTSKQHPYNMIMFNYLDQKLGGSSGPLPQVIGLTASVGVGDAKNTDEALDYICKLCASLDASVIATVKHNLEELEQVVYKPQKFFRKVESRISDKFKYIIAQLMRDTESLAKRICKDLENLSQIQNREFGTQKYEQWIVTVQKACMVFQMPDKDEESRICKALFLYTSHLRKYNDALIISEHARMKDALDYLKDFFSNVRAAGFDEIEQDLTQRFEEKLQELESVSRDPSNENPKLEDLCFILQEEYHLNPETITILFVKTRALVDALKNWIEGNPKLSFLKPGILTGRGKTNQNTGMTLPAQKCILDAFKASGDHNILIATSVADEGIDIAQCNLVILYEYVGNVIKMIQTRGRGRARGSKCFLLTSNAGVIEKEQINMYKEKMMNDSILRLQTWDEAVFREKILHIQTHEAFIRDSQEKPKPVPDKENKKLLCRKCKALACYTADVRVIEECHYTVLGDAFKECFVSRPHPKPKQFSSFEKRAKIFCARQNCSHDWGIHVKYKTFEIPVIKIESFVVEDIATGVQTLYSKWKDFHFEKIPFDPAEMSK

[2] = target: T2, RIG-I R791A R791A (Homo sapiens) (UniProt O95786); experiment: fluorescence polarization; conditions: internal 6-carboxyfluorescein in backbone between U12 and C13 (central tetraloop bases); 25 mM MOPS pH 7.4, 150 mM KCl, 2 mM DTT, 2 mM MgCl2, 0.01% Triton X-100, 1 nM RNA, room temperature, 1 h
T2 sequence: T1 sequence with A788K, R791A

**Q.** With GGACGUACGUUUCGACGUACGUCC [5'OH10L-F] as the sequence, how does the Kd [1] read?
**A.** 21.6 nM

**Q.** What about the Kd [2] of the same sequence?
**A.** 50.7 nM
